Results as given in patent US20220348632A1 (Novartis, published 2022).
Blank lines part the entries; values can stand above or below the binder they belong to.

Columns and labels:
[1] = target: T1, mouse Rae-1ε over-expressed on CT26.WT cells (mouse, UniProt Q9CZQ6 29-225); experiment: flow cytometry titration on CT26.WT cells over-expressing mouse Rae-1ε; R-PE anti-mouse Fc detection, mean R-PE fluorescence
T1 construct: whole, on cells; also called mouse RAE-1 epsilon; Rae-1E
T1 sequence (looked up): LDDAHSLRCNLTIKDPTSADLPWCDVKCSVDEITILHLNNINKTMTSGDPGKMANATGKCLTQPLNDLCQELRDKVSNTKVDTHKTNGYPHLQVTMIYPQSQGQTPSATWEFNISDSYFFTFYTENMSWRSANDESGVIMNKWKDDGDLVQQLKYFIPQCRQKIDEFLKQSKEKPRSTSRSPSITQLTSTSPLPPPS
Protocol: (§1) A […] cell sorting (FACS) based binding assay against mouse NKG2D-ligands expressed at the cell surface was performed to characterize the binding of the dimeric mouse NKG2D-Fc variants fused either to N-terminus or to C-terminus of the Fc region with no peptide linker or with different peptide linker lengths (10, 20 or 30 amino acids).
(§2) Half maximal effective concentration (EC50) in nM was determined on two different engineered stable CT26.WT cell lines, over-expressing at their surface the recombinant ligands mouse Rae-1α and mouse Rae-1E. The cells were incubated with the different concentrations of protein in DPBS supplemented with 5% FCS and 0.04% NaN₃ (FACS buffer). […] For each sample, the mean of the resulting fluorescence of alive gated cells was extracted using the Cell Quest Pro software (BD Biosciences).

[2] = target: T2, mouse Rae-1α over-expressed on CT26.WT cells (mouse, UniProt O08602 29-229); experiment: flow cytometry titration on CT26.WT cells over-expressing mouse Rae-1α; R-PE anti-mouse Fc detection, mean R-PE fluorescence
T2 construct: whole, on cells; also called mouse RAE-1alpha; Rae-1a
T2 sequence (looked up): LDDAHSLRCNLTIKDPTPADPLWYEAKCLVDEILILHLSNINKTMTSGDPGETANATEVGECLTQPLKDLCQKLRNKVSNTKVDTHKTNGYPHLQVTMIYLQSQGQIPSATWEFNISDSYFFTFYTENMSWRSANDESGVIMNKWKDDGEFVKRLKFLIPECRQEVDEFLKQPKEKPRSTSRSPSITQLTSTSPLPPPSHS
Protocol: as §1, §2

EC50 [1]: 1.65 nM | EC50 [2]: 0.894 nM
B1: MM4, mNKG2D (aa94-232)-RS(G3S)2-mNKG2D (aa94-232)-(G4S)6-mFc2 (Fc fusion)
chain: FQPVLCNKEVPVSSREGYCGPCPNNWICHRNNCYQFFNEEKTWNQSQASCLSQNSSLLKIYSKEEQDFLKLVKSYHWMGLVQIPANGSWQWEDGSSLSYNQLTLVEIPKGSCAVYGSSFKAYTEDCANLNTYICMKRAVRSGGGSGGGSFQPVLCNKEVPVSSREGYCGPCPNNWICHRNNCYQFFNEEKTWNQSQASCLSQNSSLLKIYSKEEQDFLKLVKSYHWMGLVQIPANGSWQWEDGSSLSYNQLTLVEIPKGSCAVYGSSFKAYTEDCANLNTYICMKRAVGGGGSGGGGSGGGGSGGGGSGGGGSGGGGSISAMVRSPRGPTIKPCPPCKCPAPNLLGGPSVFIFPPKIKDVLMISLSPIVTCVVVDVSEDDPDVQISWFVNNVEVHTAQTQTHREDYNSTLRVVSALPIQHQDWMSGKEFKCKVNNKDLPAPIERTISKPKGSVRAPQVYVLPPPEEEMTKKQVTLTCMVTDFMPEDIYVEWTNNGKTELNYKNTEPVLDSDGSYFMYSKLRVEKKNWVERNSYSCSVVHEGLHNHHTTKSFSRTPGK
notes: also called N-terminal, 30 aa linker

EC50 [1]: 1.5 nM | EC50 [2]: 13 nM
B2: MM7, mFc2-(G4S)4-mNKG2D (aa94-232)-RS(G3S)2-mNKG2D (aa94-232) (Fc fusion)
chain: ISAMVRSPRGPTIKPCPPCKCPAPNLLGGPSVFIFPPKIKDVLMISLSPIVTCVVVDVSEDDPDVQISWFVNNVEVHTAQTQTHREDYNSTLRVVSALPIQHQDWMSGKEFKCKVNNKDLPAPIERTISKPKGSVRAPQVYVLPPPEEEMTKKQVTLTCMVTDFMPEDIYVEWTNNGKTELNYKNTEPVLDSDGSYFMYSKLRVEKKNWVERNSYSCSVVHEGLHNHHTTKSFSRTPGKGGGGSGGGGSGGGGSGGGGSFQPVLCNKEVPVSSREGYCGPCPNNWICHRNNCYQFFNEEKTWNQSQASCLSQNSSLLKIYSKEEQDFLKLVKSYHWMGLVQIPANGSWQWEDGSSLSYNQLTLVEIPKGSCAVYGSSFKAYTEDCANLNTYICMKRAVRSGGGSGGGSFQPVLCNKEVPVSSREGYCGPCPNNWICHRNNCYQFFNEEKTWNQSQASCLSQNSSLLKIYSKEEQDFLKLVKSYHWMGLVQIPANGSWQWEDGSSLSYNQLTLVEIPKGSCAVYGSSFKAYTEDCANLNTYICMKRAV
notes: also called C-terminal variant with a linker length of 20 aa

EC50 [1]: 2.56 nM | EC50 [2]: 1.05 nM
B3: MM1, mNKG2D (aa94-232)-RS(G3S)2-mNKG2D (aa94-232)-mFc2 (Fc fusion)
chain: FQPVLCNKEVPVSSREGYCGPCPNNWICHRNNCYQFFNEEKTWNQSQASCLSQNSSLLKIYSKEEQDFLKLVKSYHWMGLVQIPANGSWQWEDGSSLSYNQLTLVEIPKGSCAVYGSSFKAYTEDCANLNTYICMKRAVRSGGGSGGGSFQPVLCNKEVPVSSREGYCGPCPNNWICHRNNCYQFFNEEKTWNQSQASCLSQNSSLLKIYSKEEQDFLKLVKSYHWMGLVQIPANGSWQWEDGSSLSYNQLTLVEIPKGSCAVYGSSFKAYTEDCANLNTYICMKRAVISAMVRSPRGPTIKPCPPCKCPAPNLLGGPSVFIFPPKIKDVLMISLSPIVTCVVVDVSEDDPDVQISWFVNNVEVHTAQTQTHREDYNSTLRVVSALPIQHQDWMSGKEFKCKVNNKDLPAPIERTISKPKGSVRAPQVYVLPPPEEEMTKKQVTLTCMVTDFMPEDIYVEWTNNGKTELNYKNTEPVLDSDGSYFMYSKLRVEKKNWVERNSYSCSVVHEGLHNHHTTKSFSRTPGK
notes: also called mouse NKG2D-Fc surrogate construct, N-terminal, no linker

EC50 [1]: 1.87 nM | EC50 [2]: 1.27 nM
B4: MM2, mNKG2D (aa94-232)-RS(G3S)2-mNKG2D (aa94-232)-(G4S)2-mFc2 (Fc fusion)
chain: FQPVLCNKEVPVSSREGYCGPCPNNWICHRNNCYQFFNEEKTWNQSQASCLSQNSSLLKIYSKEEQDFLKLVKSYHWMGLVQIPANGSWQWEDGSSLSYNQLTLVEIPKGSCAVYGSSFKAYTEDCANLNTYICMKRAVRSGGGSGGGSFQPVLCNKEVPVSSREGYCGPCPNNWICHRNNCYQFFNEEKTWNQSQASCLSQNSSLLKIYSKEEQDFLKLVKSYHWMGLVQIPANGSWQWEDGSSLSYNQLTLVEIPKGSCAVYGSSFKAYTEDCANLNTYICMKRAVGGGGSGGGGSISAMVRSPRGPTIKPCPPCKCPAPNLLGGPSVFIFPPKIKDVLMISLSPIVTCVVVDVSEDDPDVQISWFVNNVEVHTAQTQTHREDYNSTLRVVSALPIQHQDWMSGKEFKCKVNNKDLPAPIERTISKPKGSVRAPQVYVLPPPEEEMTKKQVTLTCMVTDFMPEDIYVEWTNNGKTELNYKNTEPVLDSDGSYFMYSKLRVEKKNWVERNSYSCSVVHEGLHNHHTTKSFSRTPGK
notes: also called N-terminal, 10 aa linker

EC50 [1]: 0.668 nM | EC50 [2]: 1.15 nM
B5: MM6, mFc2-(G4S)2-mNKG2D (aa94-232)-RS(G3S)2-mNKG2D (aa94-232) (Fc fusion)
chain: ISAMVRSPRGPTIKPCPPCKCPAPNLLGGPSVFIFPPKIKDVLMISLSPIVTCVVVDVSEDDPDVQISWFVNNVEVHTAQTQTHREDYNSTLRVVSALPIQHQDWMSGKEFKCKVNNKDLPAPIERTISKPKGSVRAPQVYVLPPPEEEMTKKQVTLTCMVTDFMPEDIYVEWTNNGKTELNYKNTEPVLDSDGSYFMYSKLRVEKKNWVERNSYSCSVVHEGLHNHHTTKSFSRTPGKGGGGSGGGGSFQPVLCNKEVPVSSREGYCGPCPNNWICHRNNCYQFFNEEKTWNQSQASCLSQNSSLLKIYSKEEQDFLKLVKSYHWMGLVQIPANGSWQWEDGSSLSYNQLTLVEIPKGSCAVYGSSFKAYTEDCANLNTYICMKRAVRSGGGSGGGSFQPVLCNKEVPVSSREGYCGPCPNNWICHRNNCYQFFNEEKTWNQSQASCLSQNSSLLKIYSKEEQDFLKLVKSYHWMGLVQIPANGSWQWEDGSSLSYNQLTLVEIPKGSCAVYGSSFKAYTEDCANLNTYICMKRAV
notes: also called C-terminal, 10 aa linker

EC50 [1]: 3.02 nM | EC50 [2]: 0.738 nM
B6: MM5, mFc2-mNKG2D (aa94-232)-RS(G3S)2-mNKG2D (aa94-232) (Fc fusion)
chain: ISAMVRSPRGPTIKPCPPCKCPAPNLLGGPSVFIFPPKIKDVLMISLSPIVTCVVVDVSEDDPDVQISWFVNNVEVHTAQTQTHREDYNSTLRVVSALPIQHQDWMSGKEFKCKVNNKDLPAPIERTISKPKGSVRAPQVYVLPPPEEEMTKKQVTLTCMVTDFMPEDIYVEWTNNGKTELNYKNTEPVLDSDGSYFMYSKLRVEKKNWVERNSYSCSVVHEGLHNHHTTKSFSRTPGKFQPVLCNKEVPVSSREGYCGPCPNNWICHRNNCYQFFNEEKTWNQSQASCLSQNSSLLKIYSKEEQDFLKLVKSYHWMGLVQIPANGSWQWEDGSSLSYNQLTLVEIPKGSCAVYGSSFKAYTEDCANLNTYICMKRAVRSGGGSGGGSFQPVLCNKEVPVSSREGYCGPCPNNWICHRNNCYQFFNEEKTWNQSQASCLSQNSSLLKIYSKEEQDFLKLVKSYHWMGLVQIPANGSWQWEDGSSLSYNQLTLVEIPKGSCAVYGSSFKAYTEDCANLNTYICMKRAV
notes: also called C-terminal, no linker

EC50 [1]: 1.99 nM | EC50 [2]: 0.495 nM
B7: MM3, mNKG2D (aa94-232)-RS(G3S)2-mNKG2D (aa94-232)-(G4S)4-mFc2 (Fc fusion)
chain: FQPVLCNKEVPVSSREGYCGPCPNNWICHRNNCYQFFNEEKTWNQSQASCLSQNSSLLKIYSKEEQDFLKLVKSYHWMGLVQIPANGSWQWEDGSSLSYNQLTLVEIPKGSCAVYGSSFKAYTEDCANLNTYICMKRAVRSGGGSGGGSFQPVLCNKEVPVSSREGYCGPCPNNWICHRNNCYQFFNEEKTWNQSQASCLSQNSSLLKIYSKEEQDFLKLVKSYHWMGLVQIPANGSWQWEDGSSLSYNQLTLVEIPKGSCAVYGSSFKAYTEDCANLNTYICMKRAVGGGGSGGGGSGGGGSGGGGSISAMVRSPRGPTIKPCPPCKCPAPNLLGGPSVFIFPPKIKDVLMISLSPIVTCVVVDVSEDDPDVQISWFVNNVEVHTAQTQTHREDYNSTLRVVSALPIQHQDWMSGKEFKCKVNNKDLPAPIERTISKPKGSVRAPQVYVLPPPEEEMTKKQVTLTCMVTDFMPEDIYVEWTNNGKTELNYKNTEPVLDSDGSYFMYSKLRVEKKNWVERNSYSCSVVHEGLHNHHTTKSFSRTPGK
notes: also called N-terminal, 20 aa linker

EC50 [1]: 0.624 nM | EC50 [2]: 15.6 nM
B8: MM8, mFc2-(G4S)6-mNKG2D (aa94-232)-RS(G3S)2-mNKG2D (aa94-232) (Fc fusion)
chain: ISAMVRSPRGPTIKPCPPCKCPAPNLLGGPSVFIFPPKIKDVLMISLSPIVTCVVVDVSEDDPDVQISWFVNNVEVHTAQTQTHREDYNSTLRVVSALPIQHQDWMSGKEFKCKVNNKDLPAPIERTISKPKGSVRAPQVYVLPPPEEEMTKKQVTLTCMVTDFMPEDIYVEWTNNGKTELNYKNTEPVLDSDGSYFMYSKLRVEKKNWVERNSYSCSVVHEGLHNHHTTKSFSRTPGKGGGGSGGGGSGGGGSGGGGSGGGGSGGGGSFQPVLCNKEVPVSSREGYCGPCPNNWICHRNNCYQFFNEEKTWNQSQASCLSQNSSLLKIYSKEEQDFLKLVKSYHWMGLVQIPANGSWQWEDGSSLSYNQLTLVEIPKGSCAVYGSSFKAYTEDCANLNTYICMKRAVRSGGGSGGGSFQPVLCNKEVPVSSREGYCGPCPNNWICHRNNCYQFFNEEKTWNQSQASCLSQNSSLLKIYSKEEQDFLKLVKSYHWMGLVQIPANGSWQWEDGSSLSYNQLTLVEIPKGSCAVYGSSFKAYTEDCANLNTYICMKRAV
notes: also called C-terminal variant with a linker length of 30 aa
